Source: patent US20200338203A1 (Bicycle, published 2020)
Numbered stars: 1 amine (or outer) side, 2 acyl side, 3 side chain; on linkers, the order of the positions; unused ones are H or OH. Bridge positions count the residues as written; N and C are the ends. Square brackets hold non-standard residues; d marks the D form. Primed or numbered codes have the meaning given here. Ends that are not written are not given here. K(Fl)″ = lysine labelled with carboxyfluorescein; 1Nal = N[C@@H](Cc1cccc2ccccc12)C(=O)O; TBMB = c1c(C[*:1])cc(C[*:3])cc1C[*:2]; Gly(cPent) = N[C@H](C(=O)O)C1CCCC1; hArg = N=C(N)NCCCC[C@H](N)C(=O)O; Tle = CC(C)(C)[C@H](N)C(=O)O; AF488 = AlexaFluor488 label; Aib = CC(C)(N)C(=O)O; βAla = NCCC(=O)O; Sar = CNCC(=O)O

Tests used:
Human EphA2 [1] = biological target: T1, Human EphA2 (Human, UniProt P29317 24-537); experiment: FP competition; competitor: fluorescent Compound 18
T1 construct: extracellular domain; also called EphA2 (Ecto), Human
T1 sequence (P29317 24-537): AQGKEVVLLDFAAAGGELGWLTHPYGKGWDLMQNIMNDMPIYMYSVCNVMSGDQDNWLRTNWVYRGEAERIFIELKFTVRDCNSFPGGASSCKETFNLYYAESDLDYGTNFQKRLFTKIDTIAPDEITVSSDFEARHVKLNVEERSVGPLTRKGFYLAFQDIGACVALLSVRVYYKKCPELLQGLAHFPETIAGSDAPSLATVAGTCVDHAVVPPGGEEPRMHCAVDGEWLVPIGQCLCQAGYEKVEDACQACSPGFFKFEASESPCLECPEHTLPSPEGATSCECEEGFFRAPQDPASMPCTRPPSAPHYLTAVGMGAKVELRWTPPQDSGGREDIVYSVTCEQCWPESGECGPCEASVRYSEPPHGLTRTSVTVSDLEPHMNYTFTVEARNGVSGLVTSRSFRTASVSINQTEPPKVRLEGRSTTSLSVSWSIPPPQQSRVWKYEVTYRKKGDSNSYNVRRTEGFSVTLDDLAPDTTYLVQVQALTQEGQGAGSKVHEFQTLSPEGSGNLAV
Procedure: (§1) Peptides without a fluorescent tag were tested in competition with a peptide with a fluorescent tag and a known Kd (Table 2). Peptides were diluted to an appropriate concentration in assay buffer as described in the direct binding assay with a maximum of 5% DMSO, then serially diluted 1 in 2. Five μL of diluted peptide was added to the plate followed by 10 μL of human or mouse EphA2 (Table 1) at a fixed concentration which was dependent on the fluorescent peptide used (Table 2), then 10 μL fluorescent peptide added. Measurements were conducted as for the direct binding assay, however the gain was determined prior to the first measurement.

Human EphA2 [2] = biological target: T1, Human EphA2; experiment: FP competition; competitor: fluorescent Compound 66
Procedure: as §1

Human EphA2 (Ecto) [3] = biological target: T2, Human EphA2 (Ecto) (Human, UniProt P29317 24-537); experiment: FP competition; competitor Compound 18
T2 construct: extracellular domain
T2 sequence (P29317 24-537): as above

mouse EphA2 = biological target: T3, mouse EphA2 (Mouse, UniProt Q03145 26-538); experiment: FP direct binding, selectivity
T3 construct: extracellular domain; C-terminal polyHis; also called EphA2 (Ecto), Mouse
T3 sequence (Q03145 26-538): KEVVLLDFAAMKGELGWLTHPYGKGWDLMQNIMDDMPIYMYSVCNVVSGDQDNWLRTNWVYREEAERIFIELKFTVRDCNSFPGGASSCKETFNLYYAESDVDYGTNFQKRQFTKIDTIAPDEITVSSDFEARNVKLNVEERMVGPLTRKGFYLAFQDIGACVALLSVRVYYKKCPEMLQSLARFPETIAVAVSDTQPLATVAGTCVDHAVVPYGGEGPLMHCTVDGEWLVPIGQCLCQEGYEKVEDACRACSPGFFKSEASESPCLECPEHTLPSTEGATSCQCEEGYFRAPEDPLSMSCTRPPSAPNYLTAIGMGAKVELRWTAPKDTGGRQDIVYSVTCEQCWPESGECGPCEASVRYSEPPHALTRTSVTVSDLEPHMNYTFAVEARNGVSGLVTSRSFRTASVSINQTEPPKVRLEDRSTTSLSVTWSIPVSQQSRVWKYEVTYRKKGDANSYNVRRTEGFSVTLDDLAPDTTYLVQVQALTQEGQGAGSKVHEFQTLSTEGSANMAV
Procedure: (§2) The gain used for analysis was determined for each tracer at the end of the 60 minutes where there was no protein in the well. Data was analysed using Systat Sigmaplot version 12.0. mP values were fit to a user defined quadratic equation to generate a Kd value: f=ymin+(ymax−ymin)/Lig*((x+Lig+Kd)/2-sqrt((((x+Lig+Kd)/2)\hat{ }2)−(Lig*x))). “Lig” was a defined value of the concentration of tracer used.

rat EphA2 = rat EphA2 (Rat, UniProt D3ZBN3 27-205); experiment: FP direct binding, selectivity
Procedure: as §2

Mouse EphA2 (Ecto) = biological target: T4, Mouse EphA2 (Ecto) (Mouse, UniProt Q03145 26-538); experiment: FP direct binding
T4 construct: extracellular domain; not shown: Fc fusion or C-terminal polyHis
T4 sequence (Q03145 26-538): as above

Human EphA2 (Ecto) [4] = biological target: T2, Human EphA2 (Ecto); experiment: FP direct binding
[5] = biological target: Human & mouse EphA3 (Human & mouse) (UniProt P29320); experiment: FP direct binding, selectivity
Sequence of Human & mouse EphA3 (Human & mouse) (P29320 21-541): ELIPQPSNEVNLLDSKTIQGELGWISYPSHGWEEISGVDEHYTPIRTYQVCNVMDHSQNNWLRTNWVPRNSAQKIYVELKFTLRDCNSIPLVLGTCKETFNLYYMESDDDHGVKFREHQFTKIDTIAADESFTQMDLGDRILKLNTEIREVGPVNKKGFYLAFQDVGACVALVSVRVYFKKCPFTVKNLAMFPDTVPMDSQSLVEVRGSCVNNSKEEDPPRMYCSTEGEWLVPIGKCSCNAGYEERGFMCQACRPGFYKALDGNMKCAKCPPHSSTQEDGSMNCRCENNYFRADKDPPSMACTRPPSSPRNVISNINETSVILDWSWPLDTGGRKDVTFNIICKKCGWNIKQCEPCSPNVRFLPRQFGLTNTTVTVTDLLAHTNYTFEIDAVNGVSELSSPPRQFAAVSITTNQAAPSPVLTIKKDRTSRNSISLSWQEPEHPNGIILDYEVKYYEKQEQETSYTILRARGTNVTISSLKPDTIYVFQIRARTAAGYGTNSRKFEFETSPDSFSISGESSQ

dog EphA2 (Dog) = experiment: FP direct binding, selectivity

| Binder | Ki (Human EphA2 [1]) [nM] | Ki (Human EphA2 [2]) [nM] | Ki (Human EphA2 (Ecto) [3]) [nM] | further results |
| --- | --- | --- | --- | --- |
| Ac-[Sar][Sar]A[dD]VTCPWGPAWCPVNRPGC (linker 7-14-21 via TBMB, bicyclic peptide) [Compound 173] | 6.69 |  |  |  |
| [Sar][Sar]ACPWGPFWCPVNR[dA]GC (linker 4-11-18 via TBMB, bicyclic peptide) [Compound 105] | 677 | 471 |  |  |
| [Sar][Sar]ACPW[dA]PFWCPVNRPGC (linker 4-11-18 via TBMB, bicyclic peptide) [Compound 296] |  | 1000 |  |  |
| ADVHCPWAPFWCPVNRPGCA (linker 5-12-19 via TBMB, bicyclic peptide) [Compound 151] | 394 |  |  |  |
| ADVHCPWGAFWCPVNRPGCA (linker 5-12-19 via TBMB, bicyclic peptide) [Compound 152] | 1.8 |  |  |  |
| ADVHCPWGPFWCPVN[dA]PGCA (linker 5-12-19 via TBMB, bicyclic peptide) [Compound 156] | 14.9 |  |  |  |
| [βAla][Sar][Sar][Sar][Sar][Sar][Sar][Sar][Sar][Sar][Sar]H[dD]VPCPWG[Aib]F[1Nal]CP[Tle]N[hArg]P[dD]C (linker 16-23-30 via TBMB) [Compound 269] |  |  | 1.11 |  |
| [βAla][Sar][Sar][Sar][Sar][Sar][Sar][Sar][Sar][Sar][Sar]H[dD][Gly(cPent)]PCP[1Nal]G[Aib]F[1Nal]CP[Tle]NR[Aib]GC (linker 16-23-30 via TBMB) [Compound 278] |  |  | 0.46 |  |
| [βAla][Sar][Sar][Sar][Sar][Sar][Sar][Sar][Sar][Sar][Sar]H[dD][Gly(cPent)]PC[Aib]WG[Aib]FWCP[Tle]NR[Aib][dD]C (linker 16-23-30 via TBMB) [Compound 275] |  |  | 15.9 |  |
| [Sar][Sar]ACPWGPFWCPVN[dA]PGC (linker 4-11-18 via TBMB, bicyclic peptide) [Compound 302] | > 1000 | 1410 |  |  |
| {AF488-βAla}-[Sar][Sar][Sar][Sar][Sar][Sar][Sar][Sar][Sar][Sar]H[dD]VPC[Aib][1Nal]G[Aib]F[1Nal]CP[Tle]N[hArg]P[dD]C (linker 15-22-29 via TBMB) [Compound 140] |  |  |  | Kd (mouse EphA2): 4.55 nM; Kd (rat EphA2): 1.57 nM; Kd (Mouse EphA2 (Ecto)): 4.55 nM; Kd (Human EphA2 (Ecto) [4]): 2.05 nM; Kd [5]: 3690 nM; Kd (dog EphA2 (Dog)): 8.7 nM |
| Ac-[Sar][Sar]H[dD]VTCP[1Nal]G[Aib]F[1Nal]CP[Tle]NR[Aib]GC (linker 7-14-21 via TBMB) [Compound 285] |  |  | 1.21 |  |
| ADVHCPWGPFWCPV[dA]RPGCA (linker 5-12-19 via TBMB, bicyclic peptide) [Compound 155] | 2 |  |  |  |
| [Sar][Sar]ACPWG[dA]FWCPVNRPGC (linker 4-11-18 via TBMB, bicyclic peptide) [Compound 297] |  | 1500 |  |  |
| ACLVNDDCFYMGLCA[Sar][Sar][Sar][Sar][Sar][Sar]-{K(Fl)″} (linker 2-8-14 via TBMB, bicyclic peptide, fluorescent) [Compound 23] |  |  |  | Kd (mouse EphA2): 386 nM |
| [βAla][Sar][Sar][Sar][Sar][Sar][Sar][Sar][Sar][Sar][Sar]H[dD][Gly(cPent)]TCP[1Nal]G[Aib]F[1Nal]CP[Tle]NR[Aib]GC (linker 16-23-30 via TBMB) [Compound 279] |  |  | 0.59 |  |
| [Sar][Sar]ACPWGPFWCPVNRP[dA]C (linker 4-11-18 via TBMB, bicyclic peptide) [Compound 112] | 89 | 110 |  |  |
| [βAla][Sar][Sar][Sar][Sar][Sar][Sar][Sar][Sar][Sar][Sar]H[dD]VPCP[1Nal]G[Aib]FWCP[Tle]N[hArg]P[dD]C (linker 16-23-30 via TBMB) [Compound 265] |  |  | 1.55 |  |

| Binder | Ki (Human EphA2 [1]) [nM] | Ki (Human EphA2 [2]) [nM] | Ki (Human EphA2 (Ecto) [3]) [nM] | further results |
| --- | --- | --- | --- | --- |
| [βAla][Sar][Sar][Sar][Sar][Sar][Sar][Sar][Sar][Sar][Sar]H[dD]VPCP[1Nal]G[Aib]F[1Nal]CP[Tle]N[hArg][Aib][dD]C (linker 16-23-30 via TBMB) [Compound 259] |  |  | 0.91 |  |
| {Ac-βAla}-[Sar][Sar][Sar][Sar][Sar][Sar][Sar][Sar][Sar][Sar]H[dD]VPCP[1Nal]G[Aib]F[1Nal]CP[Tle]NR[Aib]GC (linker 15-22-29 via TBMB) [Compound 258] |  |  | 0.54 |  |
| ACPWGPAWCPVNRPGCA (N-terminal Fl-G-Sar5 before the entry (5(6)-carboxyfluorescein, Gly, five sarcosines); three Cys cyclised on TBMB, bicyclic peptide, fluorescent) [Compound 12] |  |  |  | Kd (mouse EphA2): 55.5 nM |
| [βAla][Sar][Sar][Sar][Sar][Sar][Sar][Sar][Sar][Sar][Sar]H[dD][Gly(cPent)]TCP[1Nal]G[Aib]F[1Nal]CP[Tle]N[hArg]P[dD]C (linker 16-23-30 via TBMB) [Compound 280] |  |  | 0.64 |  |
| {Ac-βAla}-[Sar][Sar][Sar][Sar][Sar][Sar][Sar][Sar][Sar][Sar]H[dD]VPCP[1Nal]G[Aib]F[1Nal]CP[Tle]NR[Aib][dD]C (linker 15-22-29 via TBMB) [Compound 260] |  |  | 0.75 |  |
| {Ac-βAla}-[Sar][Sar][Sar][Sar][Sar][Sar][Sar][Sar][Sar][Sar]H[dD][Gly(cPent)]PC[Aib][1Nal]G[Aib]F[1Nal]CP[Tle]NR[Aib][dD]C (linker 15-22-29 via TBMB) [Compound 274] |  |  | 2.28 |  |
| {Ac-βAla}-[Sar][Sar][Sar][Sar][Sar][Sar][Sar][Sar][Sar][Sar]H[dD][Gly(cPent)]PCP[1Nal]G[Aib]F[1Nal]CP[Tle]N[hArg]P[dD]C (linker 15-22-29 via TBMB) [Compound 277] |  |  | 0.53 |  |
| [Sar][Sar]ACPWGPAWCPVNRPGC (linker 4-11-18 via TBMB, bicyclic peptide) [Compound 83] | 199 | 288 |  |  |
| [Sar][Sar]ACPWGPFWCPVNAPGC (linker 4-11-18 via TBMB, bicyclic peptide) [Compound 293] |  | 711 |  |  |
| [Sar][Sar]ACPWGAFWCPVNRPGC (linker 4-11-18 via TBMB, bicyclic peptide) [Compound 289] | > 1000 | 1100 |  |  |
| [Sar][Sar]ACPWGPFWCPANRPGC (linker 4-11-18 via TBMB, bicyclic peptide) [Compound 292] |  | 954 |  |  |
| [Sar][Sar]ACPWGPFWCPVNRAGC (linker 4-11-18 via TBMB, bicyclic peptide) [Compound 104] | 124 | 194 |  |  |
| [Sar][Sar]ACPWAPFWCPVNRPGC (linker 4-11-18 via TBMB, bicyclic peptide) [Compound 288] | > 1000 |  |  |  |
| [Sar][Sar]ACPWGPFWCAVNRPGC (linker 4-11-18 via TBMB, bicyclic peptide) [Compound 291] | > 1000 |  |  |  |
| [Sar][Sar]ACPWGPFWCPVNRPAC (linker 4-11-18 via TBMB, bicyclic peptide) [Compound 111] | 108 | 238 |  |  |
| [Sar][Sar]ACAWGPFWCPVNRPGC (linker 4-11-18 via TBMB, bicyclic peptide) [Compound 286] |  | 886 |  |  |
| ACPWGPFWCPVARPGC (N-terminal Sar2 before the entry; three Cys cyclised on TBMB, bicyclic peptide) [Compound 101] | 293 | 265 |  |  |
| {AF488-βAla}-[Sar][Sar][Sar][Sar][Sar][Sar][Sar][Sar][Sar][Sar]H[dD][Gly(cPent)]PC[Aib][1Nal]G[Aib]F[1Nal]CP[Tle]NR[Aib][dD]C (linker 15-22-29 via TBMB) [Compound 146] |  |  |  | Kd (Human EphA2 (Ecto) [4]): 2.19 nM; Kd [5]: 7190 nM |
